This is an account of results in US20250326843A1 (HARBOUR BIOMED SHANGHAI, published 2025).

The target of one test is T1, murine B7-H4 (murine, UniProt Q7TSP5 25-257).
T1 construct: whole, on cells; also called mB7-H4
T1 sequence (looked up): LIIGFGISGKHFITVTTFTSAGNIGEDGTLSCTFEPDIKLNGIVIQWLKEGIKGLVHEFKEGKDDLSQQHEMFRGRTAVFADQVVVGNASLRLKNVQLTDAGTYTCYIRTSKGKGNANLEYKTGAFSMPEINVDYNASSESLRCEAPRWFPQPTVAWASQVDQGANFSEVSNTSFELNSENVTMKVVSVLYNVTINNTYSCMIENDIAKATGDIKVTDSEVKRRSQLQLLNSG
The test is described as follows: flow cytometry on CHO-K1/mB7-H4 cells. The text has this: (§1) The CHO-K1 cell strain CHO-K1/huB7-H4 over-expressing human B7-H4 (produced in-house by Harbour BioMed), the CHO-K1 cell strain CHO-K1/cynoB7-H4 over-expressing cynomolgus monkey B7-H4 (produced in-house by Harbour BioMed), the CHO-K1 cell strain CHO-K1/mB7-H4 over-expressing murine B7-H4 (produced in-house by Harbour BioMed), SK-BR-3 and MDA-MB-468 cells were digested. T cells were isolated using the human T cell isolation kit (Miltenyi, #130-096-535) as described in the method of the instruction, and resuspended with PBS containing 2% FBS. The cell density was adjusted to 1×10⁶ cells/mL. The cells were seeded onto a 96-well V-bottom plate (Coming, #3894) at 100 μL/well, followed by the addition of test antibodies diluted in a 3-fold gradient at a concentration that was 2 times the final concentration, each at 100 μL/well. The cells were incubated away from light at 4° C. for 2 h. Thereafter, the cells in each well were rinsed twice with 100 μL of pre-cooled PBS containing 2% BSA, and centrifuged at 500 g at 4° C. for 5 min, and then the supernatant was discarded. […] Finally, the cells in each well were resuspended with 200 μL of pre-cooled PBS containing 2% BSA, and the fluorescence signal values were read using an ACEA Novocyte3000 flow cytometer.
(In flow cytometry, cells or beads pass a laser one at a time.)

The target of a further test is T2, human B7-H4 (human, UniProt Q7Z7D3 25-282).
T2 construct: whole, on cells; also called huB7-H4; B7-H4 on CHO-K1/huB7-H4, SK-BR-3 and MDA-MB-468 cells
T2 sequence (looked up): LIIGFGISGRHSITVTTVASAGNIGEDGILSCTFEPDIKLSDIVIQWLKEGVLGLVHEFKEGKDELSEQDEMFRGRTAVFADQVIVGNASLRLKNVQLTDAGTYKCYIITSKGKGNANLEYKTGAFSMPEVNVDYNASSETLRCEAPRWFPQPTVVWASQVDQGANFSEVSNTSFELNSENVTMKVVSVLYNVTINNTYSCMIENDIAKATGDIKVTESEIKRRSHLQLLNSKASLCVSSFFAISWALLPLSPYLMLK
The test is described as follows: flow cytometry on CHO-K1/huB7-H4 cells.
From the text: as §1

B1: B7-H4×CD3 bispecific antibody PR003733 (bispecific antibody, human IgG1, lambda, L234A L235A)
light: QAVVTQEPSLTVSPGGTVTLTCRSSTGAVTTSNYANWVQQKPGQAPRGLIGGTNKRAPWTPARFSGSLLGDKAALTLLGAQPEDEAEYFCALWYSNLWVFGGGTKLTVLGQPKAAPSVTLFPPSSEELQANKATLVCLISDFYPGAVTVAWKADSSPVKAGVETTTPSKQSNNKYAASSYLSLTPEQWKSHRSYSCQVTHEGSTVEKTVAPTECS
heavy: not shown
chain: EIVMTQSPASLSVSPGERATLSCRASQSVSSNLAWYQQKPGQAPRLLIYGASTRATGIPARVSGGGSGTEFTLTISSLQSEDFAVYYCQQYKNWPFTFGPGTKLEIKGGGGSGGGGSGGGGSGGGGSQVQLVQSGAEVKKPGSSMRVSCKASEDTFSSYAISWVRQAPGQGLEWMGGTAPIFGTTNYAQKFQGRVTITADKSTSTAYMELSSLRSEDTAVYYCARGGPYFDYWGQGTLVTVSSASEPKSSDKTHTCPPCPAPEAAGGPSVFLFPPKPKDTLMISRTPEVTCVVVDVSHEDPEVKFNWYVDGVEVHNAKTKPREEQYNSTYRVVSVLTVLHQDWLNGKEYKCKVSNKALPAPIEKTISKAKGQPREPQVCTLPPSREEMTKNQVSLSCAVKGFYPSDIAVEWESNGQPENNYKTTPPVLDSDGSFFLVSKLTVDKSRWQQGNVFSCSVMHEALHNHYTQKSLSLSPGK
notes: Fab-Fc-scFv asymmetric structure (structure A); CD3 arm from PR001848, B7-H4 arm from PR003366
Consider B1, for which the binding result in the test with murine B7-H4 is listed as “binds”.

B2: B7-H4×CD3 bispecific antibody PR003899 (bispecific antibody, human IgG1, lambda, L234A L235A)
light: B1 light
heavy: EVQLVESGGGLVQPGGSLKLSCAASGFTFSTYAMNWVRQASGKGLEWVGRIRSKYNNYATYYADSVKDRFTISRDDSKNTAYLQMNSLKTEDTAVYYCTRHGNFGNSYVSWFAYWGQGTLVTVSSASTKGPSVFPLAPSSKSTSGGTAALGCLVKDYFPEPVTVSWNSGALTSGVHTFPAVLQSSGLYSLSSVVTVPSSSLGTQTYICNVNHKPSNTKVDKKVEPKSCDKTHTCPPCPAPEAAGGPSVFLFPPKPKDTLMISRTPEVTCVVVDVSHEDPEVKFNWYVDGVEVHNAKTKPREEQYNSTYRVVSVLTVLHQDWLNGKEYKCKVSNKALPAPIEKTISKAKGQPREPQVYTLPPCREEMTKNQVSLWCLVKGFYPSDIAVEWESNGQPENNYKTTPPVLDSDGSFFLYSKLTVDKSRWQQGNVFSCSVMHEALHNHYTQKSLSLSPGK
chain: B1 chain
notes: Fab-Fc-scFv asymmetric structure (structure A); CD3 arm from PR003886, B7-H4 arm from PR003366
With B2, the binding result with human B7-H4 and with murine B7-H4 was “binds” each time.
